Source: patent US20090232730A1, “METHOD OF PRODUCING IMMUNOLIPOSOMES AND COMPOSITIONS THEREOF” (IMMUNE DISEASE INSTITUTE, INC., priority 2006, published 2009)
One block for each compound: values may come before it. {P} = phosphate

Tests used:
K562 mock cells = assay: MTT cytotoxicity assay; assay type: cell-based, human; conditions: MMC formulations
Method: K562 cells (either K562 mock cells or K562 Mac-1 cells, stably transfected with Mac-1 integrin) were grown in 1×RPMI supplemented with 10% FBS. Exponentially growing cells were seeded at 2.5×10^5/ml in 24-well plates and either left untreated or treated with graded dosages of free mitomycin (MMC) or equivalent doses of MMC formulated in liposomes. The treatment media was selected from the following MMC formulations: (i) the test system, MMC-loaded tHA-CBRM1/29, (ii) MMC-loaded ULV-HA, (iii) free MMC, (iv) free MMC dissolved in a suspension of empty tHA-CBRM1/29 and (v) free MMC dissolved in a suspension of empty ULV-HA. In addition, there were 3 drug-free controls, consisting of: (vi) no addition (i.e., only the serum-supplemented growth medium), (vii) empty tHA-CBRM1/29 and (viii) empty ULV. In all formulations, the solvent was serum-supplemented cell growth medium. Cells were washed twice with Hepes-buffered saline (HBS) then re-incubated with drug-free media for additional 48 hours. Cells were spun down and re-suspended in 0.5 ml of MTT containing medium (0.5 mg/ml), and incubated at 37° C. for 1 h. […] After 5 min at room temperature, samples were spun down and 250-μl aliquots were used for absorbance measurements. Cell viability was measured as the difference in the absorbance 550 and 620 nm. […] Data are expressed as a percent of the control healthy growing cells.

[1] = target: integrin Mac-1 (αMβ2) (human) (UniProt P11215); assay: flow cytometry on K562 cells expressing Mac-1; free antibody after lyophilization and reconstitution
[2] = target: integrin Mac-1 (αMβ2) (human) (UniProt P11215); assay: flow cytometry on K562 cells expressing Mac-1; free antibody before lyophilization
[3] = target: integrin Mac-1 (αMβ2) (human) (UniProt P11215); assay: flow cytometry on K562 cells expressing Mac-1; carrier after lyophilization and reconstitution
[4] = target: integrin Mac-1 (αMβ2) (human) (UniProt P11215); assay: cell-based or functional assay
[5] = target: integrin Mac-1 (αMβ2) (human) (UniProt P11215); assay: flow cytometry on K562 cells expressing Mac-1; carrier before lyophilization
[6] = target: integrin Mac-1 (αMβ2) (human) (UniProt P11215); assay: flow cytometry on K562 cells expressing Mac-1; carrier after lyophilization and reconstitution (no cryoprotectant)
CD4 = CD4 silencing in human primary CD4+ cells by flow cytometry; assay type: cell-based; conditions: formulated in immunomicelles, 30 pmol-1000 pmol
Method: Human neutrophils or lymphocytes were isolated from freshly drawn blood as described (Carman et al. J. Immunology, 171 (2003) 6135-6144). CD4 blasts were generated by isolating CD4+ T cells from peripheral blood lymphocytes of normal donors by immunomagnetic beads (Miltenyi Biotech) as previously reported (Novina et al. Nature Med. 2002; 8(7): 681-6) and culturing them in RPMI 1640 containing 10% FCS for 3 days in the presence of 4 μg/mL phytohemagglutinin (PHA), then expend the cells with the same media (without PHA) but with IL-2 at 10 ng/mL for 3 more days.
siRNA transfections were preformed with different formulations of siRNA targeted against human CD4, siRNA-luciferase, or siRNA-cy3. As a positive control we used Fugene 6 and ExGen 500 (PEI) transfection reagents. Cells were seeded in 24 or 96 well plates at a density of 5000−2×10^5 cells/well. […]

Compound: CO[C@@]12[C@H](COC(N)=O)C3=C(C(=O)C(C)=C(N)C3=O)N1C[C@@H]1N[C@@H]12 [free MMC, mitomycin C]
- cell survival (K562 mock cells): no significant changes in the cell survival

Compound: CD4-siRNA: siRNA targeted against human CD4, sense 5′-P.GAUCAAGAGACUCCUCAGUUU-3′, antisense 5′-P.ACUGAGGAGUCUCUUGAUCUU-3′ (RNA, 5' {P}, backbone not given here)
- plateau of CD4 silencing dose response curve (CD4): 500 pmol

Now from value to compound, other results behind:

- MFI [1]: 73
- MFI [2]: 82
Compound: CBRM1/29-cy3 (antibody)

- MFI [3]: 172
- MFI [5]: 161
Compound: tHA-CBRM1/29-cy3 (antibody)
- IC50 (MTT cytotoxicity assay, MMC entrapped in the carrier, K562 cells expressing Mac-1) [4]: 1750 nM
- fold difference of IC50 against ULV-HA (no antibody), MTT cytotoxicity assay on K562 cells expressing Mac-1 [4]: 100 fold

- mean fluorescence intensity [5]: 175
- mean fluorescence intensity [6]: 5.6
Compound: ULV-CBRM1/29-cy3 (antibody)
